The target in assay [1] is T1, human EGF receptor (human, UniProt P00533). Kind of assay: competition of 125I-EGF binding to NRHER5 membranes, 50% inhibition.
The target of assay [2] is T1, human EGF receptor. Kind of assay: competition of 125I-EGF binding to NRHER5 membranes.

Residue numbers refer to the chain shown, from its start.

“native amphiregulin (AR) purified from TPA-treated MCF-7 cells (ligand)”: in the assay with human EGF receptor [1], the IC50 (commonly the concentration needed to halve the response being measured) amounted to 100 nM. This molecule came in with a maximum competition with human EGF receptor [2] of 85%. Regarding “gp35, 35-40 kD soluble high molecular weight form of human AR (ligand)”, the IC50 with human EGF receptor [1] was above 300 nM.

B1: recombinant human AR 18 kD purified from CHO/ARGE 2a cells (ligand)
chain: NKTESEKTSDKPKRKKKGGKNGKNRRNRKKKNLCDTEFQNFCIHGKCTFLEQLETVSCQCYPEYFGERCGEKSMKTQSMVD
modifications: N-linked glycosylation at Asn-113
As to B1, in the assay with human EGF receptor [1], the IC50 is around 100 nM.

B2: bacterially produced AAAT (ligand)
chain: MVVKPPQNKTESENTSDKPKRKKKGGKNGKNRRNRKKKNPCNAEFQNFCIHGECKYIEHLEAVTCKCQQEYFGERCGEKDLLA
For the molecule B2, the IC50 with human EGF receptor [1] was around 1.5 nM.

B3: bacterially produced AR-SMKT (ligand)
chain: B2 chain with D80S, L81M, L82K, A83T
Consider B3, for which, in the assay with human EGF receptor [1], the IC50 is around 150 nM.
